Measurements: paper PMC12519216

Biological target: complex III (ubiquinone cytochrome C oxidoreductase) (mouse (endogenous in cerebellum)) (UniProt Q9CZ13)
Experiment: native gel or EMSA; blue native PAGE (4 to 12% NativePAGE) of cerebellum mitochondria solubilised in 1% digitonin, WT and Mecr285/del10 mice; transferred to PVDF and immunoblotted; in-gel activity assays on parallel gels

stoichiometry N: 2
Substance: complex III (ubiquinone cytochrome C oxidoreductase) (from UniProt Q9CZ13 35-480)
